Positions count from the first letter of the chain named.
Key:
Experiment in all cases: two-hybrid; LexA-Cdc1 bait (pBTM116 or pBTM116BN) with Gal4 activation domain-Cdc27 prey (pGAD2F-Cdc27) in S. cerevisiae CTY10-5d; ONPG liquid culture beta-galactosidase assay, mean of triplicates, as percent of wild-type Cdc1
Conditions in all cases: partners not purified
[1] = biological target: T1, Cdc1-J22 (Schizosaccharomyces pombe, UniProt P87324 1-462, Arg-GlyValProLeuArg-Gly)
T1 construct: Cdc1, S. pombe, with a pentapeptide inserted after residue 212; source: yeast two-hybrid fusion, in S. cerevisiae CTY10-5d
T1 sequence (looked up): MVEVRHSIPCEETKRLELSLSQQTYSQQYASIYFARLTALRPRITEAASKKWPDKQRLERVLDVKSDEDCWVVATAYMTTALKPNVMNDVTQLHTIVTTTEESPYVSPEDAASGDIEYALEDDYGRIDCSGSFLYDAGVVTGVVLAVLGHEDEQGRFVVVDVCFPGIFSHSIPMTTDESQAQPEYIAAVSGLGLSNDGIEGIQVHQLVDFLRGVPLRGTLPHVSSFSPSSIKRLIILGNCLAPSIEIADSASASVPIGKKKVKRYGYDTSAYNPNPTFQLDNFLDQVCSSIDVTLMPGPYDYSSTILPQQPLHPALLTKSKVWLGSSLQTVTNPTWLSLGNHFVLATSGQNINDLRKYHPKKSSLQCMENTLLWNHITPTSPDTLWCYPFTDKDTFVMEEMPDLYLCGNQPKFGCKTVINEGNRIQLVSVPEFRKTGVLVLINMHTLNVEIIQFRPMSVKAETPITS

[2] = biological target: T2, Cdc1 (fission yeast DNA polymerase delta B-subunit), wild type (Schizosaccharomyces pombe, UniProt P87324 1-462)
T2 construct: DNA polymerase delta B-subunit Cdc1, S. pombe; cdc1+ cDNA on a 1.5 kb BamHI fragment from pBTM116-Cdc1, ORF 1386 bp; also called WT; LexA-Cdc1; source: yeast two-hybrid fusion, in S. cerevisiae CTY10-5d
T2 sequence (looked up): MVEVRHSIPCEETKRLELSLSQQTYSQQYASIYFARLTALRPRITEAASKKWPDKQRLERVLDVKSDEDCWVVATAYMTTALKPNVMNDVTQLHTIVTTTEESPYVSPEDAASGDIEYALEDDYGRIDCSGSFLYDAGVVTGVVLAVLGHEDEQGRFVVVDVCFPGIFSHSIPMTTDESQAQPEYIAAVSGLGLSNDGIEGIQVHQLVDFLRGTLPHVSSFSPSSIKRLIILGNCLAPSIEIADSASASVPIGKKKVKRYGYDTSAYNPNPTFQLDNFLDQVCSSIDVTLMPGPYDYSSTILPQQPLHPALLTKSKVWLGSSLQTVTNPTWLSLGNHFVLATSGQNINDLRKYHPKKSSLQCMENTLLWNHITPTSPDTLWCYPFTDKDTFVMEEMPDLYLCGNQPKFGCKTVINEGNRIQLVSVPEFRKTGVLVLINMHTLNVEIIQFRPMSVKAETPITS

[3] = biological target: T3, Cdc1-E4 (Schizosaccharomyces pombe, UniProt P87324 1-462, Cys-GlyValProProCys-Glu)
T3 construct: Cdc1, S. pombe, with a pentapeptide inserted after residue 10; source: yeast two-hybrid fusion, in S. cerevisiae CTY10-5d
T3 sequence (looked up): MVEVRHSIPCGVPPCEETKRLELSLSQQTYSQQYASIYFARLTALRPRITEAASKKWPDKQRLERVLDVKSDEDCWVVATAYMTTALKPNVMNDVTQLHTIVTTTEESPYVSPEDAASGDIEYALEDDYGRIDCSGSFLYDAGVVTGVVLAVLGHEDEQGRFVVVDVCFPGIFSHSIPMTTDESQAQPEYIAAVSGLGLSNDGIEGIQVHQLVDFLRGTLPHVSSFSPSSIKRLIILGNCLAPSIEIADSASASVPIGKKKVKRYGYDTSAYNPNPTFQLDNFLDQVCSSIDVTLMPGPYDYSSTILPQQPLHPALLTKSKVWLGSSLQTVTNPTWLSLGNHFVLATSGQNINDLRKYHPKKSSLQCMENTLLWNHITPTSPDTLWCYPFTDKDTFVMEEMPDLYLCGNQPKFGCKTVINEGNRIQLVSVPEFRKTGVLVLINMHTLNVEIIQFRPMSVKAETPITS

[4] = biological target: T4, Cdc1-A3 (Schizosaccharomyces pombe, UniProt P87324 1-462, Asp296Ala)
T4 construct: Cdc1, S. pombe, point mutant; source: yeast two-hybrid fusion, in S. cerevisiae CTY10-5d
T4 sequence (looked up): T2 sequence (looked up) with D296A

B1: Cdc27 (fission yeast DNA polymerase delta C-subunit) (natural protein, Schizosaccharomyces pombe, UniProt P30261 1-372, looked up)
chain: MEEWRNFLDIKVINESSLVTVDNLSLQLDISSEKAQEYLNMFYQGNDFLYPIYLIHGQPIDDEINLEIDEESQPISNFPVLQYILCDKSSLQEKQSRLKSGYKTVIFALSSAPLSDFDELLPAVYEIREKDVLYKKEDADKYGFIFNENSVPRVLKKAPSTHSPQLSVPSKTSTIDKTDTRSTEKTKGKDIFSNARNQKGNSSRKNKKAPLENHKEKEPLLPKEEKLSEQAKRERDDLKNIMQLEDESVSTTSVHDSEDDNLDSNNFQLEIGTEAKSAAPDEPQEIIKSVSGGKRRGKRKVKKYATTKDEEGFLVTKEEEVWESFSEDENISTGTSNVVRNKPTTVNIATKKKNTAQSKPQQKSIMSFFGKK
notes: DNA polymerase delta C-subunit Cdc27, S. pombe; prey plasmid pGAD2F-Cdc27; also called pGAD2F-Cdc27; source: yeast two-hybrid fusion, in S. cerevisiae CTY10-5d
two-hybrid beta-galactosidase activity, % of wild-type Cdc1 [1]: 7%
two-hybrid beta-galactosidase activity, % of wild-type Cdc1 [2]: 100%
two-hybrid beta-galactosidase activity, % of wild-type Cdc1 [3]: 62%
two-hybrid beta-galactosidase activity, % of wild-type Cdc1 [4]: 23%

From article PMC2734569, “Functional mapping of the fission yeast DNA polymerase δ B-subunit Cdc1 by site-directed and random pentapeptide insertion mutagenesis” (BMC Molecular Biology, 2009)
